Data on 4 molecules can be found in patent US20260183411A1, “TARGETING SORTILIN” (priority 2024, published 2026).

Data set [1] is described as follows: Maximum tolerated dose (MTD) study. The following applies: 10 mg/kg i.v. single dose. The class given is in vivo, mouse. As for the experimental part: BALB/c Nude mice, female, 6-8 weeks, weighing approximately 18-22 g were purchased from the Shanghai SLAC Laboratory Animal Co., LTD. MTD studies were conducted at WuXi AppTec and the care and use of animals was conducted in accordance with the regulations of the Association for Assessment and Accreditation of Laboratory Animal Care (AAALAC). Two MTD studies were performed (a) a low dose study with doses ranging from 0.1, 0.5, 1 and 3 mg/kg and (b) a high dose study with doses ranging from 3, 5, 10 mg/kg. Dosing volume was determined based on body weight (10 ul/g) and PDCs were dissolved in 25 mM Histidine 10% sucrose pH 7 and administered i.v. at a single dose at day 0. The treatment and observation were conducted up to 7 days and MTD was defined by ≥20% body weight loss. Body weights were measured daily, death and observed clinical signs were recorded.
Doses of 3, 5, and 10 mg/kg were administered. MTD was defined by ≥20% body weight loss and body weight measured daily.

Data set [2] addresses T1, SORT1 on cells (HEK293 cells transiently transfected with / overexpressing SORT1); SORT1-expressing MDA-MB-231 … (UniProt Q99523 78-831, limits assumed).
T1 sequence (looked up): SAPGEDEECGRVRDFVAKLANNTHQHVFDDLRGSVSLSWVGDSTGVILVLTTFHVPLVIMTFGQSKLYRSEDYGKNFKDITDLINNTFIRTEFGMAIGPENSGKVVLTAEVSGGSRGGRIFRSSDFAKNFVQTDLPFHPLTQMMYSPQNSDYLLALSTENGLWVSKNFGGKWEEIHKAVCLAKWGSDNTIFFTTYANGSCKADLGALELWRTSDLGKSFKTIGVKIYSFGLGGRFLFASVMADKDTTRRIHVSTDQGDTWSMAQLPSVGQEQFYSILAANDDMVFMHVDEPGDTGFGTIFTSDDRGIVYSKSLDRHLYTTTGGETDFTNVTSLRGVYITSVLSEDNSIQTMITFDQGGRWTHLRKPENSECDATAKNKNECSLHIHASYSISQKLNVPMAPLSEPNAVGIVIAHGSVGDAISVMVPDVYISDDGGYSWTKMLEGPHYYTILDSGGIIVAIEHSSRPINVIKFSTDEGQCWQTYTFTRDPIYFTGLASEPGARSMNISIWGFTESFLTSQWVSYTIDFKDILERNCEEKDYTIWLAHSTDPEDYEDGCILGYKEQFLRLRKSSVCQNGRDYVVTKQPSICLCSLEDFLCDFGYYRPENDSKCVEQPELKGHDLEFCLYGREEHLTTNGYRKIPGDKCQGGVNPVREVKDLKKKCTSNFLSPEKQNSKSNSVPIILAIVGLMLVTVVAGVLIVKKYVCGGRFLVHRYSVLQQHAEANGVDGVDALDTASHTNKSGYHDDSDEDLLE
The data set is described as follows: cell-based or functional assay.

For the molecule `CC[C@H](C)[C@@H]([C@@H](CC(=O)N1CCC[C@H]1[C@H](OC)[C@@H](C)C(=O)N[C@H](C)[C@@H](O)c1ccccc1)OC)N(C)C(=O)[C@@H](NC(=O)[C@H](C(C)C)N(C)C(=O)OCc1ccc(NC(=O)[C@H](CCCNC(N)=O)NC(=O)[C@@H](NC(=O)CCCC(=O)NCCC(=O)N(C)CC(=O)N(C)CC(=O)N(C)CC(=O)N(C)CC(=O)N[C@@H](CC(=O)O)C(=O)N[C@@H](CC(=O)O)C(=O)N2CCC[C@H]2C(=O)N[C@@H](CCCNC(=N)N)C(=O)N[C@@H](C)C(=O)N2CCC[C@H]2C(=O)N[C@@H](Cc2c[nH]c3ccccc23)C(=O)N2CCC[C@H]2C(=O)N[C@@H](C)C(=O)N[C@@H](CC(C)C)C(=O)N[C@@H](CCC(N)=O)C(=O)N[C@@H](CCCNC(=N)N)C(=O)N[C@@H](CC(C)C)C(=O)N[C@@H](C)C(=O)N[C@@H](CC(C)C)C(=O)N[C@@H](CCCNC(=N)N)C(=O)N[C@@H](CC(C)C)C(=O)O)C(C)C)cc1)C(C)C` [PRGN_RL_PDC], in data set [1], the toxicity entry was “mild toxicity”.

B1: Peptide 2-GAPDH6-BCN (peptide)
peptide: XXXXXXAPRWDAPLRDPALRQXX
modifications: N-terminal 6-azidohexanoic acid joined by a triazole to hexyl-BCN on the 5' end of the sense strand of GAPDH siRNA; 1: (bAla); 2-5: (Sar); 21: (B13); 22: (G48)
As for B1, in data set [2], the “GAPDH mRNA % knockdown compared to untreated cells (RT-qPCR), HEK293 + SORT1 - CQ” value (“GAPDH mRNA % knockdown” for short) was found to be 47%.

B2: Peptide 2-GAPDH6-SPDP (peptide)
peptide: CXXXXXAPRWDAPLRDPALRQXX
modifications: N-terminal Ac; Cys 1 side chain in a disulphide with SPDP on the 5' end of the sense strand of GAPDH siRNA; 2: (bAla); 3-6: (Sar); 22: (B13); 23: (G48)
B2: in data set [2], the “GAPDH mRNA % knockdown” value amounted to 36%.

B3: Peptide 2-GAPDH6-thiol (peptide)
peptide: XXXXXAPRWDAPLRDPALRQXX
modifications: not fully specified; N-terminal maleimide joined by a thioether to 6-mercaptohexanoic acid on the 5' end of the sense strand of GAPDH siRNA; 1: (bAla); 2-5: (Sar); 21: (B13); 22: (G48)
As for B3, the “GAPDH mRNA % knockdown” value in data set [2] was determined as 40%.
